We go through 3 molecules from patent US20220194996A1.

B1: Pro(Sol)-6C fusion protein, produced in L. lactis (protein)
chain: EYVDEKERQGEIYPFGDEEEKDEGGESFTYEKSEVDKTDLFKFIEGGEGDDVYKVDGSKVLLDDDTISRVSKKHTARDGEYGEYGEAVEDGENVIKIIRSVLQSGALPSVGVDELDKIDLSYETTESGDTAVSEDSYDKYASNNTNKEKESGSVSSEQLAQFRSLDEKKVIHGCNFSSNVSSKHTFTDSLDISLVDDSAHISCNVHLSEPKYNHLVGLNCPGDIIPDCFFQVYQPESEELEPSNIVYLDSQINIGDIEYYEDAEGDDKIKLFGIVGSIPKTTSFTCICKKDKKSAYMTVTIDSA
B2: Pro(Flex2)-6C fusion protein, produced in L. lactis (protein)
chain: EYVDEKERQGEIYPFGDEEEKDEGGESFTYEKSEVDKTDLFKFIEGGEGDDVYKVDGSKVLLDDDTISRVSKKHTARDGEYGEYGEAVEDGENVIKIIRSVLQSGALPSVGVDELDKIDLSYETTESGDTAVSEDSYDKYASNNTNKEGGGGSGGGGSGGGGSEKKVIHGCNFSSNVSSKHTFTDSLDISLVDDSAHISCNVHLSEPKYNHLVGLNCPGDIIPDCFFQVYQPESEELEPSNIVYLDSQINIGDIEYYEDAEGDDKIKLFGIVGSIPKTTSFTCICKKDKKSAYMTVTIDSA
B3: Pro(CsLNK)-6C fusion protein, produced in L. lactis (protein)
chain: EYVDEKERQGEIYPFGDEEEKDEGGESFTYEKSEVDKTDLFKFIEGGEGDDVYKVDGSKVLLDDDTISRVSKKHTARDGEYGEYGEAVEDGENVIKIIRSVLQSGALPSVGVDELDKIDLSYETTESGDTAVSEDSYDKYASNNTNKENMPNDPNRNVDENANANSAVKNNNNEEEKKVIHGCNFSSNVSSKHTFTDSLDISLVDDSAHISCNVHLSEPKYNHLVGLNCPGDIIPDCFFQVYQPESEELEPSNIVYLDSQINIGDIEYYEDAEGDDKIKLFGIVGSIPKTTSFTCICKKDKKSAYMTVTIDSA

The assay has as its target rat mAb 45.1 (against Pfs48/45 conformational epitope I).
B1: the % of folding stood at 90%. Next, B2: 100%; B3: 75%.
